What all share (experiment): SEC-MALS
A general note: SEC sorts molecules by how far they enter the pores of the column.

In experiment [1] the target is DdMICU (Dictyostelium discoideum MICU, residues 105–461) (Dictyostelium discoideum).
The target is the same in experiment [2]. The source holds these as a separate data set.
The target is the same in experiment [3]. This is another data set of the same source.

Read-outs that look alike come from different tables or passages of the source.

In general, stoichiometry N refers to the number of molecules, sites or subunits per partner or assembly.

For “DdMICU (Dictyostelium discoideum MICU, residues 105–461) (domain or fragment)”, the stoichiometry N came out at 2 in experiment [1], 4 in experiment [2] and 2 in experiment [3].

For the origin of these results see paper PMC12095637.
